The source of these data is paper PMC6994217 (Science Advances, 2020).

Assay [1] deals with SHP2^1–220 (tandem SH2, both SH2 domains) (human) (UniProt Q06124). Kind of assay: SEC-MALS.
For assay [2] the target is unchanged. Kind of assay: NMR DOSY.
Assay [3] deals with T1, N-terminal SH2 domain of SHP2 (SHP2^1–105) (human, UniProt Q06124-2 1-105).
T1 sequence: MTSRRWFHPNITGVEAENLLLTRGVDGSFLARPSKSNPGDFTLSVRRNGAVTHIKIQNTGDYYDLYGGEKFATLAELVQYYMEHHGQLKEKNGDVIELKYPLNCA
Kind of assay: ITC.

In assay [4] the target is T2, C-terminal SH2 domain of SHP2 (SHP2^106–220) (human, UniProt Q06124-2 106-220).
T2 sequence: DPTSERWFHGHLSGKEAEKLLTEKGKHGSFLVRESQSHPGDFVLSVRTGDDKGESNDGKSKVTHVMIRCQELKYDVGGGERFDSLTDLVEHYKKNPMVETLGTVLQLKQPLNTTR
Kind of assay: ITC.

Square brackets hold non-standard residues; d marks the D form. pY = N[C@@H](Cc1ccc(OP(=O)(O)O)cc1)C(=O)O

“diphosphorylated bidentate peptide ITSM-[dPEG4]2-ITSM, Ac-EQTE(pY)ATIVFP-(dPEG4)-(dPEG4)-EQTE(pY)ATIVFP-NH2” came in with a stoichiometry N (peptide per protein) in assay [1] of 1.
For the molecule “diphosphorylated bidentate peptide ITIM-[dPEG4]2-ITSM, Ac-FSVD(pY)GELDFQ-(dPEG4)-(dPEG4)-EQTE(pY)ATIVFP-NH2”, the stoichiometry N (peptide per protein) in assay [2] turned out to be 1.

B1: PD-1 ITIM phosphopeptide, Ac-FSVD(pY)GELDFQ-NH2 (peptide)
peptide: Ac-FSVD[pY]GELDFQ-NH2
SMILES: CC(=O)N[C@@H](Cc1ccccc1)C(=O)N[C@@H](CO)C(=O)N[C@H](C(=O)N[C@@H](CC(=O)O)C(=O)N[C@@H](Cc1ccc(OP(=O)(O)O)cc1)C(=O)NCC(=O)N[C@@H](CCC(=O)O)C(=O)N[C@@H](CC(C)C)C(=O)N[C@@H](CC(=O)O)C(=O)N[C@@H](Cc1ccccc1)C(=O)N[C@@H](CCC(N)=O)C(N)=O)C(C)C
As to B1, the values for the Kd in assay [3] and in assay [4] were 1900 nM and 26400 nM, respectively.

B2: PD-1 ITSM phosphopeptide, Ac-EQTE(pY)ATIVFP-NH2 (peptide)
peptide: Ac-EQTE[pY]ATIVFP-NH2
SMILES: CC[C@H](C)[C@H](NC(=O)[C@@H](NC(=O)[C@H](C)NC(=O)[C@H](Cc1ccc(OP(=O)(O)O)cc1)NC(=O)[C@H](CCC(=O)O)NC(=O)[C@@H](NC(=O)[C@H](CCC(N)=O)NC(=O)[C@H](CCC(=O)O)NC(C)=O)[C@@H](C)O)[C@@H](C)O)C(=O)N[C@H](C(=O)N[C@@H](Cc1ccccc1)C(=O)N1CCC[C@H]1C(N)=O)C(C)C
As for B2, the Kd in assay [3] amounted to 167 nM; in assay [4] it was 13 nM.
